From publication PMC4072508, “Genome-Wide Prediction and Validation of Peptides That Bind Human Prosurvival Bcl-2 Proteins” (PLoS Computational Biology, 2014)

T1: Mcl-1, Q07820
T1 chain: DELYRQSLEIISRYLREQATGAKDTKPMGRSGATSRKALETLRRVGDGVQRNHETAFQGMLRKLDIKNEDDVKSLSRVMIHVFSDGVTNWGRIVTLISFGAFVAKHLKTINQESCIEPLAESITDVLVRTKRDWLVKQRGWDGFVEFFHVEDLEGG


biological target: Bcl-xL, Q07817; test: peptide SPOT array, c-Myc-tagged receptor at 1 uM or 100 nM, anti-c-Myc-Cy3
Sequence (Q07817 1-209): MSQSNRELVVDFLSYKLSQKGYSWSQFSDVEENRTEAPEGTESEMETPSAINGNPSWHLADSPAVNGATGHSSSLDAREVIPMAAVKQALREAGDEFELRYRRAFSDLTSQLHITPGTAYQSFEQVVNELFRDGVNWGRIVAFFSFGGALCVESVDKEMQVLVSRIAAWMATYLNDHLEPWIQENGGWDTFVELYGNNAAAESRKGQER

SPOT signal as a fraction of Bim BH3's signal on the same receptor and array	Binder
0.01	ELQAPATVQSDGLLGDRLCVGAAGGF [CDC42BPG]
0.03	LRCEMASTGEVACFGEGIHTAFLKAM [CPS1]

Biological target: T1, Mcl-1, Q07820
Test: as above

SPOT signal as a fraction of Bim BH3's signal on the same receptor and array	Binder
0.02	SEDHFRAAYLLKDVAKEAYQDVAFTQ [BNC1]
0.48	HQAEVQIARKLQCIADQFHRLHVQQH [BMF]
0.02	GSKSDPLCVLLQDVGGGSWAELGRTE [CPNE1]
0.02	IVIDCSAIQFLDTAGIHTLKEVRRDY [SLC26A2]
0.01	SGEFARICRDDSHIGDAVVISCAKDG [PCNA]
0.11	QVQNIKLAGSLQHVAEKLCRELYNKA [CLEC1A]
0.01	ELQAPATVQSDGLLGDRLCVGAAGGF [CDC42BPG]
0.53	LWAAQRYGRELRRMSDEFVDSFKKGL [BAD]
0.02	DRFEGYCIDLLRELSTILGFTYEIRL [GRIK2]
0.22	ANLEISYAKGLQKLASKLSKALQNTR [NOSTRIN]
0.01	SSEEITVAGNLEKSAERSTQGLKFHL [RSC1A1]
0.22	GKDHPAVAATLNNLAVLYGKRGKYKE [KLC1]
0.02	CRREPGLAETLRDAAHLGLLECQFQF [WNT9B]
0.06	AKYLSGIAHFLEKLAFSSTARFDSKD [PMPCA]
0.01	PASTDAVSALLEQTAVELEKRQEGRS [WWC1]
0.02	RGPEAPGGRALRDAAENLFQELQEHF [PRR20C]
0.02	TGVNGEISYSLFQASDEISKTFKVDF [PCDHB8]
0.01	REAAVSASDILQESAIHSPGTVEKEA [C12orf43]
0.03	LRCEMASTGEVACFGEGIHTAFLKAM [CPS1]
0.02	IFNGSNWIMLIYKGGDEYDNHCGKEQ [M6PR]
0.24	SLIEYKAAVTLQRAALKFLAKYRKKK [IQCB1]
0.11	TWEIECTSEMLKKLSSKVMTKVIKKK [TRANK1]
0.02	AIDAIFLTTTLQNISEDVLAVMDNKN [CKAP5]
0.01	CVSDQELGLLIKEVADALGGGADPET [KCNK4]
0.13	DVTHSKAVEALKEAGSIVRLYVKRRK [DLG1]
0.01	DKATENCVCILHNLSYQLEAELPEKY [PKP2]
0.02	VPARAPAVDLLEEAADLLVVHLDFRA [PEX26]

SPOT signal as a fraction of Bim BH3's signal on the same receptor and array	Binder
0.02	SKSKIHAARSLSEIAIDLTETGTLKT [FRMD4A]
0.07	SSAPAAAAGLLREAGSGGRERADWRR [MAP3K1]
0.02	FSDCLMVVQFLRNFGKVLGFDVNIDV [BAZ2B]
0.45	GVMTQEVGQLLQDMGDDVYQQYRSLT [HUWE1]
0.04	SVLRKALHDSLHDCSHWFYTRWKDWE [ZRANB1]
0.02	QATHDQAVQALKRAGKEVLLEVKFIR [SNTB2]
0.02	TESGSFVANLLKDLGLEIGELAVRGA [PCDHB2]
0.15	RTVESEAASYLDQISRYYITRAKLVS [PSME3]
0.03	KYFLQNFSCFLEETADEWAEKMPKGP [EFCAB6]
0.02	LELVSGSIGVLKNMSQRIGGELEEQA [STX6]
0.02	PFNKEELSAILKFGAEELFKEPEGEE [CHD1]
0.02	TLLTPGYSVIIEKLAEGLDIQLKSPV [KDM1B]
0.02	DFITALPARGLDHIAENILSYLDAKS [BTRC]
0.02	AKTSQTVATFLDELAQKLKPLGEQER [THOP1]
0.02	LDDSVEVIKALKNGGAHLDFRAKDGM [SHANK2]
0.02	FDRAVVLSHYIHNLSSEMFSEFDKRY [PRL]
0.02	KRAAEMMASLLKDLAEIGIAVGNNDV [KIF5B]
0.17	RFVVIDNCIALKKVASRLKKKRKKKN [TTC3]
0.07	AEIELEYSRSLEKLAERFSSKIRSSR [SRGAP3]
0.11	AAPEGDWARLLEQMGALAVRGSRRER [ZBED3]
0.02	LFKAADSSRSIYEVAMQLLQILEPKM [FRYL]
0.02	KCCYGYCIDLLERLAEDTPFDFELYL [GRIN3B]
0.03	DRYEGFCVDMLKELAEILRFNYKIRL [GRIK4]
0.02	EAGNMAAVGRLQAVSRRLFAELENER [KIAA1751]
0.01	CANHPSAVNVLTEHSEELGEFMETKG [ARHGEF7]
0.01	TRELQELARKLQELLDASENLLTENT [TXNDC11]
